From patent US11499162B2, “Plants having increased tolerance to herbicides” (BASF SE, priority 2016, dated 2022)
Changes are numbered by the printed parent chain. Names and notes keep the numbering of the source.

B1: Y93F: mutated TriA variant of SEQ ID NO: 2 (protein)
chain: MQTLSIQHGTLVTMDQYRRVLGDSWVHVQDGRIVALGVHAESVPPPADRVIDARGKVVLPGFINAHTHVNQILLRGGPSHGRQLYDWLFNVLFPGQKAMRPEDVAVAVRLYCAEAVRSGITTINDNADSAIYPGNIEAAMAVYGEVGVRVVYARMFFDRMDGRIQGYVDALKARSPQVELCSIMEETAVAKDRITALSDQYHGTAGGRISVWPAPAITPAVTVEGMRWAQAFARDRAVMWTLHMAESDHDERLHWMSPAEYMECYGLLDERLQVAHCVYFDRKDVRLLHRHNVKVASQVVSNAYLGSGVAPVPEMVERGMAVGIGTDDGNCNDSVNMIGDMKFMAHIHRAVHRDADVLTPEKILEMATIDGARSLGMDHEIGSIETGKRADLILLDLRHPQTTPHHHLAATIVFQAYGNEVDTVLIDGNVVMENRRLSFLPPERELAFLEEAQSRATAILQRANMVANPAWRSL
modifications: Pseudomonas
B2: Y85LF89AL92AY93L: mutated TriA variant of SEQ ID NO: 2 (protein)
chain: B1 chain with Y85L, F89A, L92A, F93L
modifications: Pseudomonas
B3: L92AY93LD250S: mutated TriA variant of SEQ ID NO: 2 (protein)
chain: B1 chain with L92A, F93L, D250S
modifications: Pseudomonas
B4: L92AY93V: mutated TriA variant of SEQ ID NO: 2 (protein)
chain: B1 chain with L92A, F93V
modifications: Pseudomonas
B5: N70VQ71T: mutated TriA variant of SEQ ID NO: 2 (protein)
chain: B1 chain with N70V, Q71T, F93Y
modifications: Pseudomonas
B6: L92AY93VM155TF157L: mutated TriA variant of SEQ ID NO: 2 (protein)
chain: B1 chain with L92A, F93V, M155T, F157L
modifications: Pseudomonas
B7: Y85LL88AF89AL92AY93VQ96TD128G: mutated TriA variant of SEQ ID NO: 2 (protein)
chain: B1 chain with Y85L, L88A, F89A, L92A, F93V, Q96T, D128G
modifications: Pseudomonas
B8: Y85LL88AL92AY93VQ96TD128G: mutated TriA variant of SEQ ID NO: 2 (protein)
chain: B1 chain with Y85L, L88A, L92A, F93V, Q96T, D128G
modifications: Pseudomonas
B9: L88AL92AY93L: mutated TriA variant of SEQ ID NO: 2 (protein)
chain: B1 chain with L88A, L92A, F93L
modifications: Pseudomonas
B10: Y85LL92AY93V: mutated TriA variant of SEQ ID NO: 2 (protein)
chain: B1 chain with Y85L, L92A, F93V
modifications: Pseudomonas
B11: L88AL92AY93V: mutated TriA variant of SEQ ID NO: 2 (protein)
chain: B1 chain with L88A, L92A, F93V
modifications: Pseudomonas
B12: D328G: mutated TriA variant of SEQ ID NO: 2 (protein)
chain: B1 chain with F93Y, D328G
modifications: Pseudomonas
B13: M160G: mutated TriA variant of SEQ ID NO: 2 (protein)
chain: B1 chain with F93Y, M160G
modifications: Pseudomonas
B14: Y85LL88AF89AL92AY93LQ96TD128G: mutated TriA variant of SEQ ID NO: 2 (protein)
chain: B1 chain with Y85L, L88A, F89A, L92A, F93L, Q96T, D128G
modifications: Pseudomonas
B15: L92AY93LQ96TD128G: mutated TriA variant of SEQ ID NO: 2 (protein)
chain: B1 chain with L92A, F93L, Q96T, D128G
modifications: Pseudomonas
B16: Y85LL92AY93LD250S: mutated TriA variant of SEQ ID NO: 2 (protein)
chain: B1 chain with Y85L, L92A, F93L, D250S
modifications: Pseudomonas
B17: F89AL92AY93L: mutated TriA variant of SEQ ID NO: 2 (protein)
chain: B1 chain with F89A, L92A, F93L
modifications: Pseudomonas
B18: Q71NL92AY93LQ96TD128G: mutated TriA variant of SEQ ID NO: 2 (protein)
chain: B1 chain with Q71N, L92A, F93L, Q96T, D128G
modifications: Pseudomonas
B19: Y85LL88AL92AY93L: mutated TriA variant of SEQ ID NO: 2 (protein)
chain: B1 chain with Y85L, L88A, L92A, F93L
modifications: Pseudomonas
B20: Y85LL92AY93LD128AD250S: mutated TriA variant of SEQ ID NO: 2 (protein)
chain: B1 chain with Y85L, L92A, F93L, D128A, D250S
modifications: Pseudomonas
B21: D328A: mutated TriA variant of SEQ ID NO: 2 (protein)
chain: B1 chain with F93Y, D328A
modifications: Pseudomonas
B22: N70TQ71V: mutated TriA variant of SEQ ID NO: 2 (protein)
chain: B1 chain with N70T, Q71V, F93Y
modifications: Pseudomonas
B23: Y85LL88AL92AY93V: mutated TriA variant of SEQ ID NO: 2 (protein)
chain: B1 chain with Y85L, L88A, L92A, F93V
modifications: Pseudomonas
B24: Y85LL88AL92AY93LQ96TD128G: mutated TriA variant of SEQ ID NO: 2 (protein)
chain: B1 chain with Y85L, L88A, L92A, F93L, Q96T, D128G
modifications: Pseudomonas
B25: N70VQ71V: mutated TriA variant of SEQ ID NO: 2 (protein)
chain: B1 chain with N70V, Q71V, F93Y
modifications: Pseudomonas
B26: L92AY93I: mutated TriA variant of SEQ ID NO: 2 (protein)
chain: B1 chain with L92A, F93I
modifications: Pseudomonas
B27: D250S: mutated TriA variant of SEQ ID NO: 2 (protein)
chain: B1 chain with F93Y, D250S
modifications: Pseudomonas
B28: F89LL92AY93L: mutated TriA variant of SEQ ID NO: 2 (protein)
chain: B1 chain with F89L, L92A, F93L
modifications: Pseudomonas

Assay type: biochemical
Conditions: pH 7.2
Summary of the method: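 % degradation measured against empty-vector control by UPLC-HR-MS, with product identity confirmed by exact mass and MS-MS. Conditions: 25 mM sodium phosphate pH 7.2, 30 °C, substrates at 1–10 nM. Enzyme source: TriA-expressing E. coli resting cells incubated with azines, melamine or atrazine.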

Row | Molecule | Degradation in % of 6-cyclopentyl-N4-(2,3,4,5,6-pentafluorophenyl)-1,3,5-triazine-2,4-diamine | Degradation in % of Melamine
1 | B1 | 33% | 98%
2 | B2 | 15% | 0%
3 | B3 | 99% | 0%
4 | B4 | 58% | 0%
5 | B5 | 0% | 0%
6 | B6 | 99% | 0%
7 | B7 | 13% | 0%
8 | B8 | 14% | 0%
9 | B9 | 35% | 0%
10 | B10 | 24% | 0%
11 | B11 | 25% | 0%
12 | B12 | 19% | 0%
13 | B13 | 29% | 100%
14 | B14 | 9% | 0%
15 | B15 | 94% | 0%
16 | B16 | 36% | 0%
17 | B17 | 99% | 7%
18 | B18 | 85% | 0%
19 | B19 | 13% | 0%
20 | B20 | 9% | 0%
21 | B21 | 95% | 5%
22 | B22 | 3% | 0%
23 | B23 | 13% | 0%
24 | B24 | 12% | 0%
25 | B25 | 0% | 0%
26 | B26 | 75% | 0%
27 | B27 | 16% | 0%
28 | B28 | 35% | 0%
